8 variants from IntAct's records for PubMed 29892012 can be followed below.

B1: Solute carrier family 35 member C2 (Homo sapiens), Q9NQQ7 (parent)
chain: MGRWALDVAFLWKAVLTLGLVLLYYCFSIGITFYNKWLTKSFHFPLFMTMLHLAVIFLFSALSRALVQCSSHRARVVLSWADYLRRVAPTALATALDVGLSNWSFLYVTVSLYTMTKSSAVLFILIFSLIFKLEELRAALVLVVLLIAGGLFMFTYKSTQFNVEGFALVLGASFIGGIRWTLTQMLLQKAELGLQNPIDTMFHLQPLMFLGLFPLFAVFEGLHLSTSEKIFRFQDTGLLLRVLGSLFLGGILAFGLGFSEFLLVSRTSSLTLSIAGIFKEVCTLLLAAHLLGDQISLLNWLGFALCLSGISLHVALKALHSRGDGGPKALKGLGSSPDLELLLRSSQREEGDNEEEEYFVAQGQQ
B2: Casein kinase II subunit alpha (Homo sapiens), P68400 (parent)
chain: MSGPVPSRARVYTDVNTHRPREYWDYESHVVEWGNQDDYQLVRKLGRGKYSEVFEAINITNNEKVVVKILKPVKKKKIKREIKILENLRGGPNIITLADIVKDPVSRTPALVFEHVNNTDFKQLYQTLTDYDIRFYMYEILKALDYCHSMGIMHRDVKPHNVMIDHEHRKLRLIDWGLAEFYHPGQEYNVRVASRYFKGPELLVDYQMYDYSLDMWSLGCMLASMIFRKEPFFHGHDNYDQLVRIAKVLGTEDLYDYIDKYNIELDPRFNDILGRHSRKRWERFVHSENQHLVSPEALDFLDKLLRYDHQSRLTAREAMEHPYFYTVVKDQARMGSSSMPGGSTPVSSANMMSGISSVPTPSPLGPLAGSPVIAAANPLGMPVPAAAGAQQ
B3: Keratin, type I cuticular Ha8 (Homo sapiens), O76015 (parent)
chain: MTSSYSSSSCPLGCTMAPGARNVSVSPIDIGCQPGAEANIAPMCLLANVAHANRVRVGSTPLGRPSLCLPPTCHTACPLPGTCHIPGNIGICGAYGENTLNGHEKETMQFLNDRLANYLEKVRQLEQENAELEATLLERSKCHESTVCPDYQSYFHTIEELQQKILCSKAENARLIVQIDNAKLAADDFRIKLESERSLRQLVEADKCGTQKLLDDATLAKADLEAQQESLKEEQLSLKSNHEQEVKILRSQLGEKLRIELDIEPTIDLNRVLGEMRAQYEAMLETNRQDVEQWFQAQSEGISLQDMSCSEELQCCQSEILELRCTVNALEVERQAQHTLKDCLQNSLCEAEDRFGTELAQMQSLISNVEEQLSEIRADLERQNQEYQVLLDVKTRLENEIATYRNLLESEDCKLPCNPCSTSPSCVTAPCAPRPSCGPCTTCGPTCGASTTGSRF
partner: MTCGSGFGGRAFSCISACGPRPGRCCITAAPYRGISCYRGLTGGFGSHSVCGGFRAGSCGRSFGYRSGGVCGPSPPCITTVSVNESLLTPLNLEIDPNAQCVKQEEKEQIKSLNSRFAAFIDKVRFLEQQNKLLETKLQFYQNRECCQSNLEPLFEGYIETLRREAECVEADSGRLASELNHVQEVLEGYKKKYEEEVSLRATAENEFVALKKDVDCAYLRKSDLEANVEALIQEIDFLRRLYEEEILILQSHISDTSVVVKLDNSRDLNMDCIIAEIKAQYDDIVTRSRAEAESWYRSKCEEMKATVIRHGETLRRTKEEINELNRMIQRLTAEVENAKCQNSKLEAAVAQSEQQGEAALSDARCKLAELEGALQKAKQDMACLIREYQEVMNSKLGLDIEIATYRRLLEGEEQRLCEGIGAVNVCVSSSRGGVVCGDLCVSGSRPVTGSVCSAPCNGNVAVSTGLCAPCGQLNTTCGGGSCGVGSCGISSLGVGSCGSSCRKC
B4: UBX domain-containing protein 6 (Homo sapiens), Q9BZV1 (parent)
chain: MKKFFQEFKADIKFKSAGPGQKLKESVGEKAHKEKPNQPAPRPPRQGPTNEAQMAAAAALARLEQKQSRAWGPTSQDTIRNQVRKELQAEATVSGSPEAPGTNVVSEPREEGSAHLAVPGVYFTCPLTGATLRKDQRDACIKEAILLHFSTDPVAASIMKIYTFNKDQDRVKLGVDTIAKYLDNIHLHPEEEKYRKIKLQNKVFQERINCLEGTHEFFEAIGFQKVLLPAQDQEDPEEFYVLSETTLAQPQSLERHKEQLLAAEPVRAKLDRQRRVFQPSPLASQFELPGDFFNLTAEEIKREQRLRSEAVERLSVLRTKAMREKEEQRGLRKYNYTLLRVRLPDGCLLQGTFYARERLGAVYGFVREALQSDWLPFELLASGGQKLSEDENLALNECGLVPSALLTFSWDMAVLEDIKAAGAEPDSILKPELLSAIEKLL
partner: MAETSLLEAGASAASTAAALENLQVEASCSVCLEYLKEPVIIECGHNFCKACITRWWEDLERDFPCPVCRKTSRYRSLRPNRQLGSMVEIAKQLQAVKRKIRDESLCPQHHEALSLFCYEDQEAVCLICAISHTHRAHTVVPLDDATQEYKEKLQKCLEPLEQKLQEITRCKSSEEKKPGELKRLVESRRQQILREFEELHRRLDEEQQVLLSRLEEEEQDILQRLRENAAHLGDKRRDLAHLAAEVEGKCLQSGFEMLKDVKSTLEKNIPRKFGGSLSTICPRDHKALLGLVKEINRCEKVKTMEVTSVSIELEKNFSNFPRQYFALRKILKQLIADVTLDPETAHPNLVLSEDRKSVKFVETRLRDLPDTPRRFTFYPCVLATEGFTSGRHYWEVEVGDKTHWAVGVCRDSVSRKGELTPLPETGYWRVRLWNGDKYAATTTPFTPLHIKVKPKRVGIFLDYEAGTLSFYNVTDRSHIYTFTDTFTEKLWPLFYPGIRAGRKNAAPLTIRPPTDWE
B5: Keratin, type I cuticular Ha8 (Homo sapiens), O76015 (parent)
chain: B3 chain
partner: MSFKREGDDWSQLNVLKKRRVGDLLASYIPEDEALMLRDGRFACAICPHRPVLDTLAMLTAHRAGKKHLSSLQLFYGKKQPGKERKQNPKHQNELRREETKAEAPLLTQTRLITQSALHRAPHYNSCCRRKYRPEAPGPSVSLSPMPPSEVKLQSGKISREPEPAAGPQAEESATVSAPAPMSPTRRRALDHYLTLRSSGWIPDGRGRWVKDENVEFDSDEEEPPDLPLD
B6: Mothers against decapentaplegic homolog 4 (Homo sapiens), Q13485 (parent)
chain: MDNMSITNTPTSNDACLSIVHSLMCHRQGGESETFAKRAIESLVKKLKEKKDELDSLITAITTNGAHPSKCVTIQRTLDGRLQVAGRKGFPHVIYARLWRWPDLHKNELKHVKYCQYAFDLKCDSVCVNPYHYERVVSPGIDLSGLTLQSNAPSSMMVKDEYVHDFEGQPSLSTEGHSIQTIQHPPSNRASTETYSTPALLAPSESNATSTANFPNIPVASTSQPASILGGSHSEGLLQIASGPQPGQQQNGFTGQPATYHHNSTTTWTGSRTAPYTPNLPHHQNGHLQHHPPMPPHPGHYWPVHNELAFQPPISNHPAPEYWCSIAYFEMDVQVGETFKVPSSCPIVTVDGYVDPSGGDRFCLGQLSNVHRTEAIERARLHIGKGVQLECKGEGDVWVRCLSDHAVFVQSYYLDREAGRAPGDAVHKIYPSAYIKVFDLRQCHRQMQQQAATAQAAAAAQAAAVAGNIPGPGSVGGIAPAISLSAAAGIGVDDLRRLCILRMSFVKGWGPDYPRQSIKETPCWIEIHLHRALQLLDEVLHTMPIADPQPLD

Variants of B1 are the subject of the first assay. The settings on record: with creb3_human CREB3, O43889.
Chain of creb3_human CREB3, O43889 (O43889 whole entry): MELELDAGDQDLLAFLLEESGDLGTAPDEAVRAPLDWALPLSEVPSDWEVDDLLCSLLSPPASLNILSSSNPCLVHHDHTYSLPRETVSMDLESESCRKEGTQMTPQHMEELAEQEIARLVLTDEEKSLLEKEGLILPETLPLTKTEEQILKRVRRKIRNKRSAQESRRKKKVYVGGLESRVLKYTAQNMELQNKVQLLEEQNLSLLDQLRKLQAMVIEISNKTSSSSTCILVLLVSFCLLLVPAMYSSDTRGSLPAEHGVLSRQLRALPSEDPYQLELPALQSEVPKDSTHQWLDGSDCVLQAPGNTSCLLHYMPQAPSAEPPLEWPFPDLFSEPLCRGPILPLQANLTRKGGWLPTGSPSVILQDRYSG
Turning to G176S, the “effect of a mutation on the interaction” value is recorded as “with no effect”.

The next assay covers variants of B2. The settings on record: with nfya_human NFYA.
Turning to K198R, the “effect of a mutation on the interaction” value is “with no effect”.

In the next assay the parent is B3. The settings on record: with krt81_human KRT81, Q14533.
For N270K, the “effect of a mutation on the interaction” value was “with no effect”.

The next assay covers variants of B3. The following applies: with krt81_human KRT81, Q14533. This is another data set of the same source.
Regarding D306A, the “effect of a mutation on the interaction” value is on record as “with no effect”.

The variants in a further assay derive from B4. The following applies: with tri39_human TRIM39, Q9HCM9.
As to E391K, the “effect of a mutation on the interaction” value is recorded as “disrupting interaction strength”.

In the next assay the parent is B5. The settings on record: with scnm1_human SCNM1, Q9BWG6.
Take D306A: the “effect of a mutation on the interaction” value is “with no effect”.

In another assay the parent is B5. The settings on record: with scnm1_human SCNM1, Q9BWG6. The source holds these as a separate data set.
Take N270K: the “effect of a mutation on the interaction” value is “with no effect”.

Variants of B6 are the subject of the next assay. The settings on record: with ews_human EWSR1, Q01844.
Chain of ews_human EWSR1, Q01844 (Q01844 whole entry): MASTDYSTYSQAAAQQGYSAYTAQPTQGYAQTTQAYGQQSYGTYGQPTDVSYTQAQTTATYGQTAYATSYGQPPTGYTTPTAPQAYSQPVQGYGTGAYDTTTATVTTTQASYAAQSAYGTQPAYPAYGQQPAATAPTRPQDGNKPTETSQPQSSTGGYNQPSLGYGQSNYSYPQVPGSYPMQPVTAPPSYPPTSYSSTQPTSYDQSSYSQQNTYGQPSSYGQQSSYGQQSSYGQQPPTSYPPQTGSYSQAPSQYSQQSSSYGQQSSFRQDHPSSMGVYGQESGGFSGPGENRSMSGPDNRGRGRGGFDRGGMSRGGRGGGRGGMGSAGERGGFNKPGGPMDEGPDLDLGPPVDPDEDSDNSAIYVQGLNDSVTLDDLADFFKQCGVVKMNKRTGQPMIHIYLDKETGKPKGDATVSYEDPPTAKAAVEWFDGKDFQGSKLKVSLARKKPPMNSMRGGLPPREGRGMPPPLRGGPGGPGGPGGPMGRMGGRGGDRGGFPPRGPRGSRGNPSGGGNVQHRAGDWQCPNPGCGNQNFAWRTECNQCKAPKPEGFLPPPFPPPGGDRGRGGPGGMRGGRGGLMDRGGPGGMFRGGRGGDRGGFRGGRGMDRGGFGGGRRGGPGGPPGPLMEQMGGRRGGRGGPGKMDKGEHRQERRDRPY
As to I500V, the “effect of a mutation on the interaction” value is “disrupting interaction strength”.

The next assay covers variants of B6. The following applies: with smad3_human SMAD3, P84022.
Chain of smad3_human SMAD3, P84022 (P84022 whole entry, looked up): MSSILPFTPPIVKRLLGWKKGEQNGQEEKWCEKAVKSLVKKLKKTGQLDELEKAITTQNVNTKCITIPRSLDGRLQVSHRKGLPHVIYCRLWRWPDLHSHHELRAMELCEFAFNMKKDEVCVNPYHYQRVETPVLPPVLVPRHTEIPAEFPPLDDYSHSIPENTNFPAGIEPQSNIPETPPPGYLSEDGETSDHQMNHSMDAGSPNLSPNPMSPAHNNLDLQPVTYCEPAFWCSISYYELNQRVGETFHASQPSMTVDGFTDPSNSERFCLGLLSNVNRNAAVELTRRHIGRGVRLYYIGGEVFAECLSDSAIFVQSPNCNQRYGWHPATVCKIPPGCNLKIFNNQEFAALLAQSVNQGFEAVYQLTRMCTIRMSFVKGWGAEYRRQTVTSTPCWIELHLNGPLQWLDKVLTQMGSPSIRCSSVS
As to I500V, the “effect of a mutation on the interaction” value is “with no effect”.
